For assay [1], the target named is oxidized LDL (oxidized low-density lipoprotein) (UniProt P04114). The experiment in a line: competition ELISA on coated oxLDL; wells preincubated with Pentaglobin; competitor: IgG autoantibodies of COVID-19 sera. On the technique in general: An ELISA detects its analyte on a solid surface through an enzyme-linked reagent.
For assay [2] the target is unchanged. The experiment in a line: competition ELISA on coated oxLDL; wells preincubated with Pentaglobin; competitor: IgA autoantibodies of COVID-19 sera.

Bounds are passed on as bounds.

As to “Pentaglobin (human polyclonal immunoglobulin infusion preparation enriched for IgM and IgA)”, the percent inhibition of autoantibody binding to oxLDL in assay [1] and in assay [2] was over 20% in each case.

(Values after patent US20230295281A1.)
